# Where a chain is given by its changes, count along the chain named.
# T1: virus-like particles (VLPs) of BK polyomavirus VP-1 protein, serotype Ib2 (BK virus (BKPyV), serotype Ib2, PA …, UniProt P03088 1-362)
# T1 construct: native VLPs; also the immunogen; also called VLP Ib2; BK Ib2
# T1 chain: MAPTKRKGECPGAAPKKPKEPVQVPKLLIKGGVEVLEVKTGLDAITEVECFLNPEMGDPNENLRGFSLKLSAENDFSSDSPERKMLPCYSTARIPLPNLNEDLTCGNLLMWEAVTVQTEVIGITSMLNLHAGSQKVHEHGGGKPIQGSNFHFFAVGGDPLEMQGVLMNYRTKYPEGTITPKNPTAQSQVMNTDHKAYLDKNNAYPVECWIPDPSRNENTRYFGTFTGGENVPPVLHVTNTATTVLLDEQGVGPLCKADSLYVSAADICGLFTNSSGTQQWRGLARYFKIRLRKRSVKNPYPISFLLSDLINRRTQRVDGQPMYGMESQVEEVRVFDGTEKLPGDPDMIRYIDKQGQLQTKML
# T2: virus-like particles (VLPs) of BK polyomavirus VP-1 protein, serotype II (BK virus (BKPyV), serotype II, UniProt P14996 1-362)
# T2 construct: native VLPs; also called VLP II
# T2 chain: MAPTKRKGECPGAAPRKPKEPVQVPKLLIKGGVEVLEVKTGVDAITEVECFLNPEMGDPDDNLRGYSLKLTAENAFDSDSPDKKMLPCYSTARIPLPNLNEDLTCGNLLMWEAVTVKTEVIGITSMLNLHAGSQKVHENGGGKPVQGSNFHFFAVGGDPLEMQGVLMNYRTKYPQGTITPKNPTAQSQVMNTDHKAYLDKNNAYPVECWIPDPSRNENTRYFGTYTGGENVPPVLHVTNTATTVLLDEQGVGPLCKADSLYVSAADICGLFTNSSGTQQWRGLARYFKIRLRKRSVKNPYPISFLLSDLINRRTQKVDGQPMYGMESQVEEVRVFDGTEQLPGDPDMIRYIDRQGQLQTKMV
# T3: virus-like particles (VLPs) of BK polyomavirus VP-1 protein, serotype IV (BK virus (BKPyV), serotype IV, UniProt P14996 1-362)
# T3 construct: native VLPs; also called VLP IV
# T3 chain: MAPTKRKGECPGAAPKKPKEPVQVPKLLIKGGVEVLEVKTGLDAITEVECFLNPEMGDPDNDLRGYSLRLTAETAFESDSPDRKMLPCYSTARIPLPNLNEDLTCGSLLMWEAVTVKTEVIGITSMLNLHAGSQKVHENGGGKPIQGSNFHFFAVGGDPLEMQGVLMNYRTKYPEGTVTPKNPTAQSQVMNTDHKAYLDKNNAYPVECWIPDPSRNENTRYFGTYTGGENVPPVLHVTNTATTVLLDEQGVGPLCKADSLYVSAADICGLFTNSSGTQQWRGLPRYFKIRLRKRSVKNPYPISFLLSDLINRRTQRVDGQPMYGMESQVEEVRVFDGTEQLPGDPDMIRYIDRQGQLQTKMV
# T4: virus-like particles (VLPs) of BK polyomavirus VP-1 protein, serotype Ia (BK virus (BKPyV), serotype Ia, UniProt P03088 1-361)
# T4 construct: self-assembled native VLPs coated on ELISA plates; also called VLP Ia; BKV VP-1, serotype Ia
# T4 chain: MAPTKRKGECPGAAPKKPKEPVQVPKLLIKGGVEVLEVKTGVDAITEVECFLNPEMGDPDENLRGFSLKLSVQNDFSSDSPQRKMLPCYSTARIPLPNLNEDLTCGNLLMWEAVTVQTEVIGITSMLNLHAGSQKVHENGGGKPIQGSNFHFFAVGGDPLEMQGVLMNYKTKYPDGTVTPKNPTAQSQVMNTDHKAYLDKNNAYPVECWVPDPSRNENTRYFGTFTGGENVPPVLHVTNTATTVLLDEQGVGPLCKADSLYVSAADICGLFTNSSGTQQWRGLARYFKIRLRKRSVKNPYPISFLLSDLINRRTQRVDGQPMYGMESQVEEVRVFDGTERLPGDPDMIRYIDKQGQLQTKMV
# T5: virus-like particles (VLPs) of BK polyomavirus VP-1 protein, serotype III (BK virus (BKPyV), serotype III, UniProt P14996 1-362)
# T5 construct: native VLPs; also called VLP III
# T5 chain: T2 chain with R16K, N62H, L68Q, K69H, R215K
# B1: monoclonal antibody ‘9B1’ derived from hybridoma 9B1 (antibody, V domains shown)
# VH: DVQLQESGPGLVKPSQSLSLTCSVTGYSITSGYYWNWIRQFPGNKLEWMGYISYDGSNNYNPSLKNRISITRDTSKNQFFLKLNSVTTEDTATYYCARVDGNSWYFDVWGAGTTVTVSS
# VL: DIQMTQSSSSFSVSLGDRVTITCKASEDIYNRLAWYQQKPGNAPRLLISGATSLETGVPSRFSGSGSGKDYTLSITSLQTEDVATYYCQQYWSILLTFGAGTKLELK
# notes: also called ‘91B1’
# B2: monoclonal antibody ‘14D6’ derived from hybridoma 14D6 (antibody, V domains shown)
# VH: DVQLQESGPGLVKPSQSLSLTCSVTGYSITSGYYWNWIRQFPGNKLEWMGYISYDGSNNYNPSLKNRISITRDTSKNQFFLKLNSVTTEDTATYYCARWVGDWYFDVWGAGTTVTVSS
# VL: DIVLTQSPASLAVSLGQRATISCRASKSVSPSGYSYMHWYQQKPGQPPKLLIYLASNLESGVPARFSGSGSGTDFTLNIHPVEEEDAATYYCQHSRELPLTFGAGTKLELK
# What was measured:
# [1] = target: T6, virus-like particles (VLPs) of JC polyomavirus VP-1 protein (JC virus (JCPyV), UniProt P03089 1-354, Assembled into virus-like particles (many VP-1 copies); the letters give one VP-1 chain.); assay: ELISA on coated JCPyV VLPs
# T6 construct: Expressed in insect cells by baculovirus; VLPs coated on ELISA plates; also called JCPyV VLPs; JCPyV
# T6 sequence (P03089 whole entry): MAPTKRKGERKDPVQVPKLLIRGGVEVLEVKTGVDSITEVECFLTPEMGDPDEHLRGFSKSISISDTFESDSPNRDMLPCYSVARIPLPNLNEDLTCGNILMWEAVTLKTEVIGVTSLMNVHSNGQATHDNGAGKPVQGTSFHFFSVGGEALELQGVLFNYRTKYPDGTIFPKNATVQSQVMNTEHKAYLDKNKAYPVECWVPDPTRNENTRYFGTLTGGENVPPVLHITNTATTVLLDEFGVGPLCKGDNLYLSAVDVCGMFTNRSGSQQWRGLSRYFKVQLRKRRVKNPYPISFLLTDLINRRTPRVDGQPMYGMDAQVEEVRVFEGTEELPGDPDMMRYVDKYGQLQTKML
# [2] = target: T1, virus-like particles (VLPs) of BK …; assay: ELISA on coated VLP (detection limit OD>0.5)
# Experimental: (§1) To do this, the VLPs produced were deposited at a concentration of 1 μg/mL in PBS and incubated overnight at +4° C. The wells were then blocked for 1 h at +37° C. with a PBS/FCS (phosphate-buffered saline/fetal calf serum) mixture. After dilution in a dilution buffer containing FCS, PBS and Tween® 20, the various hybridoma culture supernatants were added for 1 h at +37° C. The wells were washed four times in a row with Wash Buffer and a secondary anti-mouse antibody coupled to peroxidase was added to the 1:2000 dilution for 1 h at +37° C. The wells were washed four more times and the substrate (OPD (ortho phenylene diamine)+H₂O₂) was added for 30 min at room temperature. A stop solution (H₂SO₄ 4N) was then added and each well was read by measuring the absorbance at 492 nm with a spectrophotometer. The value obtained for the average of the control wells (PBS in the first step) is subtracted from the optical density values obtained for each well.
# [3] = target: T6, virus-like particles (VLPs) of JC …; assay: ELISA on coated VLP (detection limit OD>0.5)
# Experimental: as §1
# [4] = target: T1, virus-like particles (VLPs) of BK …; assay: ELISA on not denatured VLP (threshold OD>0.5)
# Experimental: (§2) The wells were then blocked for 1 hour at +37° C. with a PBS/SVF mixture. After dilution in a dilution buffer containing SVF, PBS and Tween® 20, the individual culture supernatants or purified antibodies were added for 1 hour at +37° C. The wells were washed four times in a row with Wash Buffer and a secondary anti-mouse peroxidase antibody was added to the 1/2000 dilution for 1 hour at +37° C. The wells were washed again four times in a row and the substrate was added for 30 minutes at room temperature. A stop solution was added and then each well was read by measuring the absorbance at 492 nm with a spectrophotometer. The value obtained for the average of the control wells (PBS in the first step) was subtracted from the optical density values obtained for each well (detection threshold: OD>0.5).
# [5] = target: T2, virus-like particles (VLPs) of BK …; assay: ELISA on not denatured VLP (threshold OD>0.5)
# Experimental: as §2
# [6] = target: T3, virus-like particles (VLPs) of BK …; assay: ELISA on not denatured VLP (threshold OD>0.5)
# Experimental: as §2
# [7] = target: T4, virus-like particles (VLPs) of BK …; assay: ELISA on not denatured VLP (threshold OD>0.5)
# Experimental: as §2
# [8] = target: T1, virus-like particles (VLPs) of BK …; assay: ELISA on coated VLP;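 further: hybridoma culture supernatants (mouse antibodies) tested on wells coated with 1 µg/mL VLPs, peroxidase anti-mouse detection with OPD, background from PBS-coated control wells subtracted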
# Experimental: as §1
# [9] = target: T5, virus-like particles (VLPs) of BK …; assay: ELISA on coated VLP;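 further: hybridoma culture supernatants (mouse antibodies) tested on wells coated with 1 µg/mL VLPs, peroxidase anti-mouse detection with OPD, background from PBS-coated control wells subtracted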
# Experimental: as §1
# [10] = target: T2, virus-like particles (VLPs) of BK …; assay: ELISA on coated VLP;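 further: hybridoma culture supernatants (mouse antibodies) tested on wells coated with 1 µg/mL VLPs, peroxidase anti-mouse detection with OPD, background from PBS-coated control wells subtracted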
# Experimental: as §1
# [11] = target: T3, virus-like particles (VLPs) of BK …; assay: ELISA on coated VLP;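 further: hybridoma culture supernatants (mouse antibodies) tested on wells coated with 1 µg/mL VLPs, peroxidase anti-mouse detection with OPD, background from PBS-coated control wells subtracted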
# Experimental: as §1
# [12] = target: T4, virus-like particles (VLPs) of BK …; assay: ELISA on coated VLP
# Experimental: as §1
Binder,binding result [1],OD 492 nm [2] [OD],OD 492 nm [3] [OD],OD 492 nm [4] [OD],OD 492 nm [5] [OD],OD 492 nm [6] [OD],OD 492 nm [7] [OD],OD 492 nm [8] [OD],OD 492 nm [9] [OD],OD 492 nm [10] [OD],OD 492 nm [11] [OD],OD 492 nm [12] [OD]
B1,no binding (tested: detection limit: OD>0.5),1.41,0.119,1.41,1.07,2.12,4.21,3.3,1.74,1.75,2.52,3.13
B2,no binding (tested: detection limit: OD>0.5),1.55,0.112,1.55,1.66,2.63,4.04,3.24,2.55,3.08,2.62,3.24
